We go through five sequences from the supplement of paper PMC5998384.

The test system of series [1] is HeLa Kyoto. Kind of series: solubility change mitosis vs G1/S (difference of NP-40 vs SDS log2 ratios) (log2 ratio difference); higher = more soluble in mitosis.
Series [2] has as its system HeLa Kyoto. The series can be described thus: melting temperature (median over replicates), in situ; higher = more thermally stable.
Series [3] concerns HeLa Kyoto. The series can be described thus: thermal stability score vs G1/S (z-score of summed log2 fold changes over temperatures); higher = more thermally stable than in G1/S.
Series [4] relates to HeLa Kyoto. Kind of series: solubility in G1/S (NP-40 vs SDS abundance) (log2 ratio); higher = more soluble. As to conditions: cell cycle stage: G1/S.
Where [5] appears, read: cell cycle stage: early G1 (4.5 h after nocodazole release).
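Throughout, for melting temperature (median over replicates), in situ: HeLa Kyoto cells synchronized by double thymidine or nocodazole block, proteins quantified by TMT10plex mass spectrometry, three independent biological replicates.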
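Throughout, for solubility change mitosis vs G1/S (difference of NP-40 vs SDS log2 ratios): synchronized HeLa Kyoto cells (double thymidine block for G1/S, nocodazole release for mitosis), protein amounts in NP-40 versus SDS lysates quantified by mass spectrometry, three biological replicates.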
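Throughout, for solubility in G1/S (NP-40 vs SDS abundance): HeLa Kyoto cells arrested at G1/S by double thymidine block, proteins quantified by TMT10plex mass spectrometry in mild NP-40 versus SDS extracts, three biological replicates.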
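Throughout, for thermal stability score vs G1/S (z-score of summed log2 fold changes over temperatures): synchronized HeLa Kyoto cells, proteins quantified by TMT10plex mass spectrometry, three biological replicates, mitosis taken 0.5 h after nocodazole release, G1/S directly after double thymidine block.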

Turning to “MERASERRTASALFAGFRALGLFSNDIPHVVRFSALKRRFYVTTCVGKSFHTYDVQKLSLVAVSNSVPQDICCMAADGRLVFAAYGNVFSAFARNKEIVHTFKGHKAEIHFLQPFGDHIISVDTDGILIIWHIYSEEEYLQLTFDKSVFKISAILHPSTYLNKILLGSEQGSLQLWNVKSNKLLYTFPGWKVGVTALQQAPAVDVVAIGLMSGQVIIHNIKFNETLMKFRQDWGPITSISFRTDGHPVMAAGSPCGHIGLWDLEDKKLINQMRNAHSTAIAGLTFLHREPLLVTNGADNALRIWIFDGPTGEGRLLRFRMGHSAPLTNIRYYGQNGQQILSASQDGTLQSFSTVHEKFNKSLGHGLINKKRVKRKGLQNTMSVRLPPITKFAAEEARESDWDGIIACHQGKLSCSTWNYQKSTIGAYFLKPKELKKDDITATAVDITSCGNFAVIGLSSGTVDVYNMQSGIHRGSFGKDQAHKGSVRGVAVDGLNQLTVTTGSEGLLKFWNFKNKILIHSVSLSSSPNIMLLHRDSGILGLALDDFSISVLDIETRKIVREFSGHQGQINDMAFSPDGRWLISAAMDCSIRTWDLPSGCLIDCFLLDSAPLNVSMSPTGDFLATSHVDHLGIYLWSNISLYSVVSLRPLPADYVPSIVMLPGTCQTQDVEVSEETVEPSDELIEYDSPEQLNEQLVTLSLLPESRWKNLLNLDVIKKKNKPKEPPKVPKSAPFFIPTIPGLVPRYAAPEQNNDPQQSKVVNLGVLAQKSDFCLKLEEGLVNNKYDTALNLLKESGPSGIETELRSLSPDCGGSIEVMQSFLKMIGMMLDRKRDFELAQAYLALFLKLHLKMLPSEPVLLEEITNLSSQVEENWTHLQSLFNQSMCILNYLKSALL [WDR36]”, the “solubility change mitosis (log2)” value in series [1] is 0.613. For the same sequence, the melting temperature in series [2] (cell cycle stage: G1/S) came to 50.5 °C; in series [2] (cell cycle stage: mitosis) it was 50.8 °C. The thermal stability score in series [3] (setting [5]) stood at 0.383; in series [3] (cell cycle stage: mitosis) it was 0.754. Moreover, the “solubility in G1/S (log2)” value in series [4] is -1.46.

For the sequence “MERAVPLAVPLGQTEVFQALQRLHMTIFSQSVSPCGKFLAAGNNYGQIAIFSLSSALSSEAKEESKKPVVTFQAHDGPVYSMVSTDRHLLSAGDGEVKAWLWAEMLKKGCKELWRRQPPYRTSLEVPEINALLLVPKENSLILAGGDCQLHTMDLETGTFTRVLRGHTDYIHCLALRERSPEVLSGGEDGAVRLWDLRTAKEVQTIEVYKHEECSRPHNGRWIGCLATDSDWMVCGGGPALTLWHLRSSTPTTIFPIRAPQKHVTFYQDLILSAGQGRCVNQWQLSGELKAQVPGSSPGLLSLSLNQQPAAPECKVLTAAGNSCRVDVFTNLGYRAFSLSF [THOC6]”, the “solubility change mitosis (log2)” value in series [1] was determined as 0.108. Also, the melting temperature in series [2] (cell cycle stage: G1/S) was determined as 51.8 °C; in series [2] (cell cycle stage: mitosis), 51.2 °C. Moreover, the thermal stability score in series [3] (setting [5]) is -0.465; in series [3] (cell cycle stage: mitosis), -0.675. In addition, the “solubility in G1/S (log2)” value in series [4] is -0.108.

For the sequence “MERPPGLRPGAGGPWEMRERLGTGGFGNVCLYQHRELDLKIAIKSCRLELSTKNRERWCHEIQIMKKLNHANVVKACDVPEELNILIHDVPLLAMEYCSGGDLRKLLNKPENCCGLKESQILSLLSDIGSGIRYLHENKIIHRDLKPENIVLQDVGGKIIHKIIDLGYAKDVDQGSLCTSFVGTLQYLAPELFENKPYTATVDYWSFGTMVFECIAGYRPFLHHLQPFTWHEKIKKKDPKCIFACEEMSGEVRFSSHLPQPNSLCSLVVEPMENWLQLMLNWDPQQRGGPVDLTLKQPRCFVLMDHILNLKIVHILNMTSAKIISFLLPPDESLHSLQSRIERETGINTGSQELLSETGISLDPRKPASQCVLDGVRGCDSYMVYLFDKSKTVYEGPFASRSLSDCVNYIVQDSKIQLPIIQLRKVWAEAVHYVSGLKEDYSRLFQGQRAAMLSLLRYNANLTKMKNTLISASQQLKAKLEFFHKSIQLDLERYSEQMTYGISSEKMLKAWKEMEEKAIHYAEVGVIGYLEDQIMSLHAEIMELQKSPYGRRQGDLMESLEQRAIDLYKQLKHRPSDHSYSDSTEMVKIIVHTVQSQDRVLKELFGHLSKLLGCKQKIIDLLPKVEVALSNIKEADNTVMFMQGKRQKEIWHLLKIACTQSSARSLVGSSLEGAVTPQTSAWLPPTSAEHDHSLSCVVTPQDGETSAQMIEENLNCLGHLSTIIHEANEEQGNSMMNLDWSWLTE [CHUK]”, the “solubility change mitosis (log2)” value in series [1] is -0.139. For the same sequence, the melting temperature was determined as 48.7 °C in series [2] (cell cycle stage: G1/S) and 49.1 °C in series [2] (cell cycle stage: mitosis). For the same sequence, the thermal stability score was 0.418 in series [3] (setting [5]) and 1.15 in series [3] (cell cycle stage: mitosis). Moreover, the “solubility in G1/S (log2)” value in series [4] is 0.0423.

For “MERQKRKADIEKGLQFIQSTLPLKQEEYEAFLLKLVQNLFAEGNDLFREKDYKQALVQYMEGLNVADYAASDQVALPRELLCKLHVNRAACYFTMGLYEKALEDSEKALGLDSESIRALFRKARALNELGRHKEAYECSSRCSLALPHDESVTQLGQELAQKLGLRVRKAYKRPQELETFSLLSNGTAAGVADQGTSNGLGSIDDIETDCYVDPRGSPALLPSTPTMPLFPHVLDLLAPLDSSRTLPSTDSLDDFSDGDVFGPELDTLLDSLSLVQGGLSGSGVPSELPQLIPVFPGGTPLLPPVVGGSIPVSSPLPPASFGLVMDPSKKLAASVLDALDPPGPTLDPLDLLPYSETRLDALDSFGSTRGSLDKPDSFMEETNSQDHRPPSGAQKPAPSPEPCMPNTALLIKNPLAATHEFKQACQLCYPKTGPRAGDYTYREGLEHKCKRDILLGRLRSSEDQTWKRIRPRPTKTSFVGSYYLCKDMINKQDCKYGDNCTFAYHQEEIDVWTEERKGTLNRDLLFDPLGGVKRGSLTIAKLLKEHQGIFTFLCEICFDSKPRIISKGTKDSPSVCSNLAAKHSFYNNKCLVHIVRSTSLKYSKIRQFQEHFQFDVCRHEVRYGCLREDSCHFAHSFIELKVWLLQQYSGMTHEDIVQESKKYWQQMEAHAGKASSSMGAPRTHGPSTFDLQMKFVCGQCWRNGQVVEPDKDLKYCSAKARHCWTKERRVLLVMSKAKRKWVSVRPLPSIRNFPQQYDLCIHAQNGRKCQYVGNCSFAHSPEERDMWTFMKENKILDMQQTYDMWLKKHNPGKPGEGTPISSREGEKQIQMPTDYADIMMGYHCWLCGKNSNSKKQWQQHIQSEKHKEKVFTSDSDASGWAFRFPMGEFRLCDRLQKGKACPDGDKCRCAHGQEELNEWLDRREVLKQKLAKARKDMLLCPRDDDFGKYNFLLQEDGDLAGATPEAPAAAATATTGE [ZC3H7B]”, the “solubility change mitosis (log2)” value in series [1] was 0.118. The melting temperature in series [2] (cell cycle stage: G1/S) came to 48 °C; in series [2] (cell cycle stage: mitosis), 47.6 °C. In addition, the thermal stability score in series [3] (setting [5]) worked out at 1.16; in series [3] (cell cycle stage: mitosis), 1.26. In addition, in series [4], the “solubility in G1/S (log2)” value is -0.354.

“MERREEQPGAAGAGAAPALDFTVENVEKALHQLYYDPNIENKNLAQKWLMQAQVSPQAWHFSWQLLQPDKVPEIQYFGASALHIKISRYWSDIPTDQYESLKAQLFTQITRFASGSKIVLTRLCVALASLALSMMPDAWPCAVADMVRLFQAEDSPVDGQGRCLALLELLTVLPEEFQTSRLPQYRKGLVRTSLAVECGAVFPLLEQLLQQPSSPSCVRQKVLKCFSSWVQLEVPLQDCEALIQAAFAALQDSELFDSSVEAIVNAISQPDAQRYVNTLLKLIPLVLGLQEQLRQAVQNGDMETSHGICRIAVALGENHSRALLDQVEHWQSFLALVNMIMFCTGIPGHYPVNETTSSLTLTFWYTLQDDILSFEAEKQAVYQQVYRPVYFQLVDVLLHKAQFPSDEEYGFWSSDEKEQFRIYRVDISDTLMYVYEMLGAELLSNLYDKLGRLLTSSEEPYSWQHTEALLYGFQSIAETIDVNYSDVVPGLIGLIPRISISNVQLADTVMFTIGALSEWLADHPVMINSVLPLVLHALGNPELSVSSVSTLKKICRECKYDLPPYAANIVAVSQDVLMKQIHKTSQCMWLMQALGFLLSALQVEEILKNLHSLISPYIQQLEKLAEEIPNPSNKLAIVHILGLLSNLFTTLDISHHEDDHEGPELRKLPVPQGPNPVVVVLQQVFQLIQKVLSKWLNDAQVVEAVCAIFEKSVKTLLDDFAPMVPQLCEMLGRMYSTIPQASALDLTRQLVHIFAHEPAHFPPIEALFLLVTSVTLTLFQQGPRDHPDIVDSFMQLLAQALKRKPDLFLCERLDVKAVFQCAVLALKFPEAPTVKASCGFFTELLPRCGEVESVGKVVQEDGRMLLIAVLEAIGGQASRSLMDCFADILFALNKHCFSLLSMWIKEALQPPGFPSARLSPEQKDTFSQQILRERVNKRRVKEMVKEFTLLCRGLHGTDYTADY [IPO13]”: the “solubility change mitosis (log2)” value in series [1] is -0.175. Further, the figures for the melting temperature in series [2] (cell cycle stage: G1/S) and in series [2] (cell cycle stage: mitosis) were 51.2 °C and 51 °C, respectively. The thermal stability score was -0.535 in series [3] (setting [5]) and -0.562 in series [3] (cell cycle stage: mitosis). The “solubility in G1/S (log2)” value in series [4] is -0.335.
